Values quoted from earlier work in paper PMC10348426.
Where two headings read alike, the source gives them in different places. Each block holds one substance with its values, some of them ahead of it.

What was measured:
[1] = target: ER ECD (Arabidopsis thaliana) (UniProt Q42371)
[2] = target: FER ECD (Arabidopsis thaliana) (UniProt Q9SCZ4); assay: MST
[3] = target: ER ECD (Arabidopsis thaliana) (UniProt Q42371); remark: listed apart in the source

Chain of UniProt Q42371 (Q42371 25-580): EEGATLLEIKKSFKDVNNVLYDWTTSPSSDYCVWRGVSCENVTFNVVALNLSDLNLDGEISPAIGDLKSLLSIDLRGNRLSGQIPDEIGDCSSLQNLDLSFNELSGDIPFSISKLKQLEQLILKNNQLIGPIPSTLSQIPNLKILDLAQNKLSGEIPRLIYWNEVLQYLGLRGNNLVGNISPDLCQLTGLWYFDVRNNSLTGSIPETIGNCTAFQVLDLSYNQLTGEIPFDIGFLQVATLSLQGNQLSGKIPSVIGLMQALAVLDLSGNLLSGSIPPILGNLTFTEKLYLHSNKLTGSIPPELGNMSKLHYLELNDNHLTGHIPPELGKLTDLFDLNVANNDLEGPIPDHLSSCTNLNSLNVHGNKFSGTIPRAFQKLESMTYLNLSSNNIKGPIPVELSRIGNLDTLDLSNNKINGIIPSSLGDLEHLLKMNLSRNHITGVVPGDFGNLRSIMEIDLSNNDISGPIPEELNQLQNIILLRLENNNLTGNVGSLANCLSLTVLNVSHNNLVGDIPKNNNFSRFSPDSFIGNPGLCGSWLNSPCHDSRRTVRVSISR
Chain of UniProt Q9SCZ4 (Q9SCZ4 28-447): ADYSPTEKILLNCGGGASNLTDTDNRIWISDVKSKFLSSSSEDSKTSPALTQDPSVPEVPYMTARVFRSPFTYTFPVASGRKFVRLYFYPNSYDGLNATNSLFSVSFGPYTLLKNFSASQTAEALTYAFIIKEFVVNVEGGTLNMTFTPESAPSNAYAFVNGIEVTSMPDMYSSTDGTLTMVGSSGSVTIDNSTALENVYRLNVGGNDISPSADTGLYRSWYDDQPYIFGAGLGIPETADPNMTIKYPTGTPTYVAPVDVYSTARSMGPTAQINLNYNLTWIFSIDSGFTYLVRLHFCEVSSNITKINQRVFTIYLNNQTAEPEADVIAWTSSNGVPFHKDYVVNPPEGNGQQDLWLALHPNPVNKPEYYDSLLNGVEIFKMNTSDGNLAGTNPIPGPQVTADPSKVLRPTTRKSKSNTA

- Kd [1]: 59 nM
Substance: EPF2 (from UniProt Q8LC53)

- Kd [2]: 160 nM
Substance: RALF33 (from UniProt Q8L9P8)

- Kd [3]: 44 nM
Substance: STOMAGEN (from UniProt Q9SV72)
